The text below walks through data of PMC6213277.

Test [1] deals with McjD-C547 (cys-less McjD with the native cysteine C547 only), labelled with Alexa555 and Alexa647 (Escherichia coli) (UniProt Q9X2W0). The experiment in a line: FRET or BRET; single-molecule FRET, confocal scanning, 10 ms time resolution; labelled McjD reconstituted in biotin-DOPE proteoliposomes (protein to lipid ~1:1,000 w/w) immobilised through neutravidin on PEG-biotin coverslips; oxygen-free buffer with Trolox; FRET between the single cysteines of the two protomers.

Test [2] deals with McjD L67C (single cysteine in cys-less McjD), labelled with Alexa555 and Alexa647 (Escherichia coli) (UniProt Q9X2W0).
The target in test [3] is McjD Y64C (single cysteine in cys-less McjD), labelled with Alexa555 and Alexa647 (Escherichia coli) (UniProt Q9X2W0).

Molecule “McjD-C547 (cys-less McjD with the native cysteine C547 only), labelled with Alexa555 and Alexa647 (from UniProt Q9X2W0 1-580) (natural protein)” had a lifetime of the dimerized ATP-free NBD state in test [1] of 82 ms.

With GGAGHVPEYFVGIGTPISFYG [antibacterial peptide MccJ25], in test [2], the mean apparent FRET efficiency E* between the dyes at L67C of the two protomers (opening of the TMD), proteoliposomes, with 10 mM ATP and 200 uM MccJ25 (apo 0.69) was 0.51; the mean apparent FRET efficiency E* between the dyes at L67C of the two protomers (opening of the periplasmic gate of the TMD), detergent, with ATP + MccJ25 (apo 0.95; ATP alone 0.95) worked out at 0.83. Moreover, in test [3], the mean apparent FRET efficiency E* between the dyes at Y64C of the two protomers (opening of the TMD), proteoliposomes, with 10 mM ATP and 200 uM MccJ25, first population (apo 0.81 & 0.60) worked out at 0.82; the mean apparent FRET efficiency E* between the dyes at Y64C of the two protomers (opening of the TMD), proteoliposomes, with 10 mM ATP and 200 uM MccJ25, second population (apo 0.81 & 0.60) stood at 0.52; the mean apparent FRET efficiency E* between the dyes at Y64C of the two protomers (opening of the periplasmic gate of the TMD), detergent, with ATP + MccJ25 (apo 1.07; ATP alone 1.01) worked out at 0.91.
